# The RNAGym collection of RNA variant scans (doi:10.1093/nar/gkz1192)
# B1: CPEB3 Ribozyme (parent)
# chain: UAACAGGGGGCCACAGCAGAAGCGUUCACGUCGCAGCCCCUGUCAGAUUCUGGUGAAUCUGCGAAUUCUGCUGUAUAUCUC
# Variants of: B1
# Test: self-cleavage, relative activity (ratio to wild type); higher = more cleavage; in vitro, sequencing
# Outline: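 For each CPEB3 ribozyme variant, relative activity is its cleaved/total read fraction divided by the unmutated ribozyme's. Barcoded error-prone PCR libraries were transcribed by T7 RNA polymerase (5 hours, 37°C) and held in DNase I for 15 min before an EDTA stop, with cleavage occurring throughout. Template-switching reverse transcription and Illumina sequencing were used to read the RNAs. A 5-read minimum applied, and results are the mean of three batches.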
row,Variant,self-cleavage
1,C12U U43A,1.24
2,C12U U43C,1.11
3,A13U C14U,1.26
4,A13U C23U,0.15
5,A13U C23G,0.17
6,A13U C23A,0.33
7,A13G C50A,0.76
8,A13G C50G,0.81
9,A13G C50U,0.91
10,A13U A64C,0.27
11,A13U A64G,1.09
12,A13U A64U,0.47
13,A13U A18C,0.42
14,A13U A18U,0.38
15,A13U A18G,0.87
16,A13C G30U,0.12
17,A13C G30A,0.25
18,A13C C71U,0.33
19,C12U U66C,0.71
20,A13G C79U,1.14
21,C12U G24C,0.16
22,A13C U66C,0.33
23,A13G U72G,0.46
24,A13G U72A,0.54

row,Variant,self-cleavage
1,A13G U72C,0.8
2,A13C U41C,1.08
3,A13G U31G,0.51
4,A13G U31A,0.5
5,A13G U31C,0.45
6,A13G C32U,0.18
7,A13G C32A,0.16
8,A13C A56G,0.65
9,A13C A56U,0.48
10,A13C A47G,1.05
11,A13C A47C,0.34
12,A13G U25A,0.29
13,A13G U25C,0.36
14,A13U A47G,1.01
15,A13U A47U,0.92
16,A13U A47C,0.76
17,C12U U41A,0.24
18,C12U U41G,0.28
19,C12U U41C,1.31
20,A13G U41A,0.27
21,A13G U41C,0.79
22,A13G U41G,0.37
23,A13G G70C,0.45
24,A13G G70A,0.26

row,Variant,self-cleavage
1,C12U U72A,1.1
2,C12U U72C,1.24
3,A13C U54G,0.71
4,A13C U54C,1.09
5,A13C C29G,0.3
6,C12U U26C,0.84
7,C12U U26A,1.19
8,A13C U80A,0.92
9,A13C U80C,1.14
10,A13U C37U,1.09
11,A13U A77U,1.22
12,A13U A77G,1.03
13,A13G C71A,0.25
14,A13G C71U,0.39
15,A13G C71G,0.12
16,A13C U76A,1.18
17,A13C U76C,0.75
18,A13C U69A,0.31
19,A13C U69C,0.52
20,A13G A20G,0.6
21,A13G A20U,0.28
22,A13G A20C,0.27
23,A13G A77U,0.92
24,A13G A77G,0.69

row,Variant,self-cleavage
1,A13G A77C,0.62
2,A13G U78A,1.01
3,A13G U78C,0.94
4,A13C A28G,0.62
5,A13C A28U,0.76
6,A13G G33C,0.17
7,A13G G33A,0.21
8,A13G G33U,0.24
9,A13U A15C,0.88
10,A13U A15U,1.05
11,A13U A15G,0.69
12,A13G A18U,0.27
13,A13G A18G,0.39
14,A13C G73C,0.48
15,A13G C23U,0.36
16,A13G C23G,0.46
17,A13G C29G,0.11
18,A13G C29U,0.33
19,A13G C29A,0.3
20,A13C U51A,1.01
21,A13C U51G,0.88
22,A13C U51C,1.11
23,A13G U74C,0.72
24,A13G U74A,1.28

row,Variant,self-cleavage
1,A13G U74G,1.37
2,A13U C29U,0.58
3,A13U A35U,0.75
4,A13U A35G,1.3
5,A13U A35C,0.69
6,A13C U49C,0.42
7,A13C A15G,1.07
8,A13C A15U,1
9,A13G U60C,0.38
10,A13G U60G,0.32
11,A13G U60A,0.43
12,A13G C40A,0.21
13,A13G C40G,0.23
14,A13G C40U,0.76
15,C12U G63C,1.26
16,C12U G63A,1.39
17,A13C C79U,1.11
18,A13C U67C,0.19
19,A13C C38U,0.93
20,A13C C38A,0.33
21,C12U U60A,1.04
22,C12U U60C,0.95
23,C12U U60G,0.46
24,A13C C14G,0.56

row,Variant,self-cleavage
1,C12U U76C,1.31
2,A13G G30U,0.18
3,A13G G30C,0.16
4,A13G G30A,0.44
5,A13G C27U,0.26
6,A13U A45U,0.69
7,A13U A45C,0.38
8,A13U A45G,1.1
9,A13C C44U,0.59
10,A13C C44A,0.42
11,A13U C17U,0.92
12,A13U C17G,0.48
13,A13G U48A,0.31
14,A13G U48C,0.44
15,A13G C44A,0.24
16,A13G C44U,0.32
17,A13C A77G,1.12
18,A13C U26A,0.61
19,A13C U26C,0.51
20,A13G A64U,0.32
21,A13G A64G,0.76
22,A13G A64C,0.46
23,A13G G46A,0.21
24,A13G A56U,0.42

row,Variant,self-cleavage
1,A13G A56G,0.73
2,A13C U58C,0.45
3,C12U U48C,1.18
4,C12U U48G,0.94
5,A13G U76A,0.99
6,A13G U76C,0.94
7,A13G U76G,1.08
8,A13U,1.17
9,A13C,0.96
10,A13G,0.94
11,A13C A35G,1.22
12,A13C A35U,0.42
13,C12U U67A,0.86
14,C12U U67G,0.95
15,C12U U67C,0.3
16,A13C A57U,0.28
17,A13C A57G,1.04
18,A13G A35G,0.92
19,A13G A35C,0.56
20,A13G A35U,0.48
21,A13G U58G,0.2
22,A13G U58C,0.46
23,C12U G70A,1.06
24,A13C A20G,0.72

row,Variant,self-cleavage
1,A13G U69C,0.32
2,A13G U69G,0.39
3,A13G U69A,0.38
4,A13G G22C,0.12
5,A13G G22A,0.19
6,A13G A28G,0.39
7,A13G A28U,0.54
8,A13G A28C,0.43
9,A13C G46C,0.18
10,A13G C39A,0.28
11,A13G C39U,1
12,A13G C39G,0.27
13,A13C C50A,0.87
14,A13G A57G,0.72
15,A13G A57C,0.33
16,A13G A57U,0.45
17,A13U A65G,0.61
18,A13U A65C,0.17
19,A13G C14A,0.88
20,A13G C14U,0.78
21,A13G U54G,0.76
22,A13G U54C,0.92
23,A13G U54A,1.07
24,A13G G55A,0.79

row,Variant,self-cleavage
1,A13G G55C,0.23
2,A13C U43C,0.62
3,A13G C62U,0.23
4,A13G C62A,0.18
5,C12U U54C,1.27
6,C12U U54G,1.01
7,A13G U26G,0.21
8,A13G U26C,0.38
9,A13G U26A,0.85
10,A13G U80G,0.75
11,A13G U80C,1.03
12,A13G U80A,1.07
13,A13C U74C,1.18
14,A13C G70A,0.44
15,A13G U66A,0.45
16,A13G U66C,0.35
17,A13G U66G,0.31
18,A13C C40A,0.26
19,A13G A21U,0.35
20,A13G A21G,0.5
21,C12U G36C,0.17
22,A13C U48C,0.68
23,A13C C32A,0.29
24,C12U G46A,0.68

row,Variant,self-cleavage
1,C12U U69C,0.96
2,C12U U69G,1.18
3,C12U U69A,0.95
4,A13C G22A,0.19
5,A13G C17U,0.51
6,A13G C17G,0.13
7,A13G C17A,0.38
8,A13U A56G,1.07
9,A13U A56U,0.93
10,A13C C68U,1.07
11,A13G C38A,0.13
12,A13G C38G,0.28
13,A13G C38U,0.83
14,A13U A57U,1.04
15,A13U A57C,0.7
16,A13U A57G,1.07
17,A13U C32A,0.2
18,A13U C32U,0.25
19,A13U C32G,0.45
20,A13C A18U,0.25
21,A13C A18G,0.67
22,A13C U31C,0.66
23,A13C U31A,0.38
24,A13U A21U,0.35

row,Variant,self-cleavage
1,A13U A21G,0.48
2,A13U A21C,0.37
3,A13G C34U,0.32
4,A13G C34G,0.17
5,C12U U80C,1.23
6,C12U U80A,1.26
7,A13C U72A,0.24
8,A13C U72C,0.83
9,A13G A45C,0.34
10,A13G A45G,0.67
11,A13G A45U,0.4
12,A13C A64U,0.4
13,A13C A64G,0.93
14,A13G G24A,0.27
15,A13G A47C,0.57
16,A13G A47U,0.38
17,A13G A47G,0.86
18,A13C U25C,0.31
19,A13C U25A,0.34
20,A13U C34U,0.43
21,A13C U78C,1.02
22,A13C U78A,1
23,A13G A65C,0.56
24,A13G A65U,0.31

row,Variant,self-cleavage
1,A13G A65G,0.41
2,A13C A21U,0.49
3,C12U U49C,1.01
4,A13G A75C,1.03
5,A13G A75U,0.99
6,A13G A75G,1.03
7,C12U U51C,1.25
8,C12U U51A,1.26
9,A13G C59G,0.24
10,A13G C59U,0.8
11,A13G G53A,0.92
12,A13G G53U,1.15
13,A13G U67C,0.25
14,A13G U67A,0.43
15,A13G G63C,0.81
16,A13G G63A,0.68
17,A13C A45U,0.44
18,A13C G63U,0.97
19,A13U A20G,0.93
20,A13U A20U,0.54
21,A13G G52U,1.14
22,A13G G52A,1.04
23,A13C C17U,0.53
24,A13G C81A,1.23

row,Variant,self-cleavage
1,A13C A65G,0.32
2,C12U U58C,1.03
3,C12U U58A,0.9
4,A13G U49A,0.41
5,A13G U49C,0.25
6,A13U C27A,0.17
7,A13U C27U,0.24
8,A13G G16A,0.24
9,A13G C68U,0.66
10,A13G C37U,0.53
11,A13G C37A,0.18
12,A13C G36A,0.26
13,A13C G36C,0.35
14,A13G A15U,0.43
15,A13G A15G,0.35
16,A13G A15C,0.81
17,A13G U43C,0.49
18,A13G U43A,0.93
19,A13G U43G,0.27
20,A13G G73C,1.12
21,A13G G73A,1.27
22,C12U U31A,1.11
23,C12U U31C,1.28
24,C12U U31G,0.91

row,Variant,self-cleavage
1,C12U U74G,1.25
2,C12U U74A,1.3
3,C12U G53A,1.18
4,A13U A28G,0.72
5,A13U A28U,1.01
6,A13U A28C,0.64
7,C12U U25C,0.38
8,C12U U25G,0.7
9,A13C U60A,0.52
10,A13C U60C,0.51
11,A13C U60G,0.57
12,A13G G36A,0.35
13,A13G G36U,0.2
14,C12U U78A,1.28
15,C12U U78C,1.23
16,A13C A75G,1.12
17,A13C A75U,0.99
18,A13U A75G,1.25
19,A13U A75U,1.28
20,A13G U51A,0.91
21,A13G U51G,0.84
22,A13G U51C,0.85
